{
  "source": "paper PMC11972402",
  "about": "(Nature Communications, 2025)",
  "target": "T1, Saccharomyces cerevisiae Rat1-Rai1 complex (Saccharomyces cerevisiae, UniProt Q02792 1-981; P53063 1-387)",
  "T1 sequence (looked up) 1": "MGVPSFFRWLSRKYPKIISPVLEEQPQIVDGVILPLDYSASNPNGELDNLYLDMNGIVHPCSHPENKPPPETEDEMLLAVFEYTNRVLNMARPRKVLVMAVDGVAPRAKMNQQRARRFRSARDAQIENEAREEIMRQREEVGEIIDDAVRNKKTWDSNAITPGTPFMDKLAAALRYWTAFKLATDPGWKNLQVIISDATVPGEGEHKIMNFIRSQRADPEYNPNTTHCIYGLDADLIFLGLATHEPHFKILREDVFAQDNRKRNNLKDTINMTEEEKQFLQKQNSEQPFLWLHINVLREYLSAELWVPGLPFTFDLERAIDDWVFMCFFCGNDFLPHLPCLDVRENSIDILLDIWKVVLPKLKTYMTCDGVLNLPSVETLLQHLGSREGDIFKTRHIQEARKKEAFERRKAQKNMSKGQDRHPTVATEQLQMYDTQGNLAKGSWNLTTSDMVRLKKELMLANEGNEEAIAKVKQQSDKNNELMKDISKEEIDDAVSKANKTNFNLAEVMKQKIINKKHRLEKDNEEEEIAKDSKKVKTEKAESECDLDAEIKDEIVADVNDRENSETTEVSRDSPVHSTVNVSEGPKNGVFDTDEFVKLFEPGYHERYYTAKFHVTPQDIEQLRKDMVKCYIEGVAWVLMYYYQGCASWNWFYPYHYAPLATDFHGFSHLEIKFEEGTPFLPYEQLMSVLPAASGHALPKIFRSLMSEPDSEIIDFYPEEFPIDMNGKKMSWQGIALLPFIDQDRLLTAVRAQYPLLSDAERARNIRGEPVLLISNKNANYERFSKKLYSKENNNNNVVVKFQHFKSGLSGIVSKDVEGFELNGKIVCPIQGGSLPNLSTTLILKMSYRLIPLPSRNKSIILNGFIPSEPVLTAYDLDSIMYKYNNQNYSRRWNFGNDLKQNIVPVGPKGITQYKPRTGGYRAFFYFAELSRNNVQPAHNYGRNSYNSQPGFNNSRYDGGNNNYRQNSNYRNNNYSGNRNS",
  "T1 sequence (looked up) 2": "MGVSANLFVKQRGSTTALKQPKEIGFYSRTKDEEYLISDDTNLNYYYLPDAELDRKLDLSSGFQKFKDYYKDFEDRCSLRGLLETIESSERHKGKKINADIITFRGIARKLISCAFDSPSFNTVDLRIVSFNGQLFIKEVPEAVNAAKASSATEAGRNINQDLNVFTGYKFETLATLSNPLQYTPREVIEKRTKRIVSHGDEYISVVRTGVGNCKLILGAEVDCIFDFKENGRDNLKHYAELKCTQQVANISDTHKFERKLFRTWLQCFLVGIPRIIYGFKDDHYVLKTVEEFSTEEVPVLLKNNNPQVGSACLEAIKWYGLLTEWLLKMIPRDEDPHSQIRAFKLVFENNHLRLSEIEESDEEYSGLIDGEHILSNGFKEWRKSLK",
  "experiment": "pull-down",
  "data": [
    {"binder": "SAKDPSRLNKNVDEDNIIPTYEVGDGDDDD (domain or fragment, Saccharomyces cerevisiae, UniProt Q05543 243-272, looked up)", "note": "[N-terminal 6×His-MBP tagged S. cerevisiae Rtt103 RIS (243-272) wild-type]", "values": [
      {"measurement": "binding result", "value": "binds"}
    ]}
  ]
}
